# Source: IntAct's records for PubMed 18547146
# B1: BH3-interacting domain death agonist (Mus musculus), P70444 (parent)
# chain: MDSEVSNGSGLGAEHITDLLVFGFLQSSGCTRQELEVLGRELPVQAYWEADLEDELQTDGSQASRSFNQGRIEPDSESQEEIIHNIARHLAQIGDEMDHNIQPTLVRQLAAQFMNGSLSEEDKRNCLAKALDEVKTAFPRDMENDKAMLIMTMLLAKKVASHAPSLLRDVFHTTVNFINQNLFSYVRNLVRNEMD
# Variants of: B1
# Conditions: with BCL2L1, Q07817-1
# Chain of BCL2L1, Q07817-1 (Q07817 whole entry): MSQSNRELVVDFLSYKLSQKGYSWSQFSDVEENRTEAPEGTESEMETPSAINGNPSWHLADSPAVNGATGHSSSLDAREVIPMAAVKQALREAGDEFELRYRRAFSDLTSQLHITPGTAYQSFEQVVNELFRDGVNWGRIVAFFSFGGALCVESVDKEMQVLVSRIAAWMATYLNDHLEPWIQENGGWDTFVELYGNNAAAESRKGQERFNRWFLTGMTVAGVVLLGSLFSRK
row,Variant,effect of a mutation on the interaction
1,M97A;D98A,disrupting interaction
